{"source": "paper PMC12098916", "about": "“Modelling POLG mutations in mice unravels a critical role of POLγΒ in regulating phenotypic severity”", "molecules": {"B1": {"name": "EMSA primer-template 36/21 (dsDNA)", "DNA 1": "TTTTTTTTTTATCCGGGCTCCTCTAGACTCGACCGC", "DNA 2": "GCGGTCGAGTCTAGAGGAGCC"}, "B2": {"name": "cryo-EM primer-template 40/25 with 3' mismatch (dsDNA)", "DNA 1": "TTTTTTTTTTATCCGGGCTCCTCTAGACTCGACCGCATGC", "DNA 2": "GCATGCGGTCGAGTCTAGAGGAGCT"}}, "key": {"[1]": {"target": "mouse DNA polymerase γ catalytic subunit, wild type (mPolγA^WT) (mouse) (UniProt P54099)", "sequence (P54099 whole entry)": "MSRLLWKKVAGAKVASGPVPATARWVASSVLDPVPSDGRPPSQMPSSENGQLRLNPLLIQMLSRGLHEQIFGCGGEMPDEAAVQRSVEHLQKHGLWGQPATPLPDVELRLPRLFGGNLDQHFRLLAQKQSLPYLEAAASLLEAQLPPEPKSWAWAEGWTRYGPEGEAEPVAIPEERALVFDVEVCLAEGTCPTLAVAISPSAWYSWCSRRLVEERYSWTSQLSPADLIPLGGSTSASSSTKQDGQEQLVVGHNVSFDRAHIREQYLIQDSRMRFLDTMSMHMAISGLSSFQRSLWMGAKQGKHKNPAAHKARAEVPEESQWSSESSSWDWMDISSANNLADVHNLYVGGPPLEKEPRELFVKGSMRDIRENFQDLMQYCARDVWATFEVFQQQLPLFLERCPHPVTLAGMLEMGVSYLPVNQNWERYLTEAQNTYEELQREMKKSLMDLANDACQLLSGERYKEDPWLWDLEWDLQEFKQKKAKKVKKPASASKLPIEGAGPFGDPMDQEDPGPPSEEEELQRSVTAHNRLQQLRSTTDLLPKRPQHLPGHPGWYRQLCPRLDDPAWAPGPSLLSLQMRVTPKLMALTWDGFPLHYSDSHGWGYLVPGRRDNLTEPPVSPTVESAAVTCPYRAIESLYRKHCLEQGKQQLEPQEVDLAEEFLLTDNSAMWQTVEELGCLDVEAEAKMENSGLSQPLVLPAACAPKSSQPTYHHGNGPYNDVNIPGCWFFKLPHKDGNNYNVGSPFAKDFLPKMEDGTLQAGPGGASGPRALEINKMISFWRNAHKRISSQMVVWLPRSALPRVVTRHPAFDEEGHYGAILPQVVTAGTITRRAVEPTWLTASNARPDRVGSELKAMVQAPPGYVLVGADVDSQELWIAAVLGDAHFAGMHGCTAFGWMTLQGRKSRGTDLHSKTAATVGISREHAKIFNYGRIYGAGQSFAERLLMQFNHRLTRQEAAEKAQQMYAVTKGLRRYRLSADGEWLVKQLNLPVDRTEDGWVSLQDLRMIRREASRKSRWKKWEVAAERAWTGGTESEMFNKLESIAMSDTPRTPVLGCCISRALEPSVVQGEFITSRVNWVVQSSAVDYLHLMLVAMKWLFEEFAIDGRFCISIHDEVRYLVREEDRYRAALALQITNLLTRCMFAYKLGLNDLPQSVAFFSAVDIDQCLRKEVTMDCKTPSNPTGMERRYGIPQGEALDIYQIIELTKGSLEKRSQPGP", "experiment": "thermal shift assay (thermofluor, SYPRO Orange); 0.5 µM PolγA with or without 0.75 µM PolγB (1:1.5), mixed on ice for 5 min; 20 mM Tris pH 8, 1 mM DTT, final NaCl 175 ± 50 mM; 4 to 95 °C in steps of 0.5 °C"}, "[2]": {"target": "mouse DNA polymerase γ catalytic subunit, Y933C variant (mPolγA^Y933C) (mouse) (UniProt P54099)", "sequence (P54099 whole entry Y934C)": "as the sequence (P54099 whole entry) above, with Y934C counted along it", "experiment": "thermal shift assay (thermofluor, SYPRO Orange); 0.5 µM PolγA with or without 0.75 µM PolγB (1:1.5), mixed on ice for 5 min; 20 mM Tris pH 8, 1 mM DTT, final NaCl 175 ± 50 mM; 4 to 95 °C in steps of 0.5 °C"}, "[3]": {"target": "human POLγA (hPOLγA WT);human POLγB (hPOLγB) (Homo sapiens;Homo sapiens, UniProt P54098;Q9UHN1 26-1239;26-485, |)", "sequence (P54098 26-1239, chain 1 of 2)": "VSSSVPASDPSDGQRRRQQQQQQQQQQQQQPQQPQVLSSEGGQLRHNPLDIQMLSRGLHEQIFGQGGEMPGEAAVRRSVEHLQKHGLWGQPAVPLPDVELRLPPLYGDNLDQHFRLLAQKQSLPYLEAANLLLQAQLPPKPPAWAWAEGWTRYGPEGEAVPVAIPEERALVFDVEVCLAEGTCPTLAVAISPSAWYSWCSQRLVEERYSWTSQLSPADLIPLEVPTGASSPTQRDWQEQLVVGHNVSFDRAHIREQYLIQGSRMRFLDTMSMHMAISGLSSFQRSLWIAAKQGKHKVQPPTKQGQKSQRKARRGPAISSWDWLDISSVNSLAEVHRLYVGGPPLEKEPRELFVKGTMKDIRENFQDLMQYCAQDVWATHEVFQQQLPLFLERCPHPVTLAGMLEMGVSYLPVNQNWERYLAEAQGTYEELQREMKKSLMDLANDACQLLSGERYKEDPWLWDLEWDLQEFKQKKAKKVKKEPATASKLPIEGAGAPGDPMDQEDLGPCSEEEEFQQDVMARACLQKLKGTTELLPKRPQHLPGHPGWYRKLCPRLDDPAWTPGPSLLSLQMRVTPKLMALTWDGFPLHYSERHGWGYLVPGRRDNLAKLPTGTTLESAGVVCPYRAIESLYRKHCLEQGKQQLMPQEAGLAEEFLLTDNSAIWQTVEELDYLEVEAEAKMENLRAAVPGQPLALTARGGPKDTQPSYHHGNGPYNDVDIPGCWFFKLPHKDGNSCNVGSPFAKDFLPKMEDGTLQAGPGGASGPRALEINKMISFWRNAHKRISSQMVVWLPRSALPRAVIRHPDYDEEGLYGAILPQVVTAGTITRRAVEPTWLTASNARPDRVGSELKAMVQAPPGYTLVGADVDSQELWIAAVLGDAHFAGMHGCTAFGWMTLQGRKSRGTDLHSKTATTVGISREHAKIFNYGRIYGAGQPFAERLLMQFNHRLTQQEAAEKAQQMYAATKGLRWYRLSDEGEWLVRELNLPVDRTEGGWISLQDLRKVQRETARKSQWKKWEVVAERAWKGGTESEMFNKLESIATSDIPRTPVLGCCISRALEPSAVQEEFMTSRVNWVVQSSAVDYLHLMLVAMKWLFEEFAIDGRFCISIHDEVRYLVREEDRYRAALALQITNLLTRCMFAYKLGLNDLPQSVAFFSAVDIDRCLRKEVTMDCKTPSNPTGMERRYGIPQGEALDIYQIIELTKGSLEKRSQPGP", "sequence (Q9UHN1 26-485, chain 2 of 2)": "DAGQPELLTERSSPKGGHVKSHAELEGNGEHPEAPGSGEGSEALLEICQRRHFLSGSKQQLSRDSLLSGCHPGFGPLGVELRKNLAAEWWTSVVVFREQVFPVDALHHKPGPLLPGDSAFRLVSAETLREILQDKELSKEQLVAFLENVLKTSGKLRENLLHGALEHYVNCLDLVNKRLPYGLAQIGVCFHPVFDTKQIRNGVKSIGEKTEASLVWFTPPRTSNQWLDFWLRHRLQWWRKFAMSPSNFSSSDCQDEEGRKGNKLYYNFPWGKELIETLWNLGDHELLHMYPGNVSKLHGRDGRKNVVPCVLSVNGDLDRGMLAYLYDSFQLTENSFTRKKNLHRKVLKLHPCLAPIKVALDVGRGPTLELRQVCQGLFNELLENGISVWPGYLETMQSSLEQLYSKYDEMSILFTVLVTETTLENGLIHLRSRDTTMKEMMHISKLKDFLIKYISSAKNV", "experiment": "EMSA; 10 uM ddCTP; value in Supp Fig 13f not in material; EMSA: 25 mM Tris-HCl pH 8.0, ~30 mM NaCl, 1 mM TCEP, 0.1 mg/ml BSA, 10% glycerol, 10 uM ddCTP, 0.5 nM DNA, 6.6 nM POLγB dimer, ice 10 min then room temperature", "settings": "protein: recombinant;recombinant; tags: 6xHis;6xHis; copies: 1;2; label: 32P 5' on 21-mer; 21 bp, 15 nt 5' overhang on strand 1"}, "[4]": {"target": "T1, mouse PolγA (mPolγA WT);mouse PolγB (mPolγB) (Mus musculus;Mus musculus, UniProt P54099;Q9QZM2 26-1218;1-459, |)", "T1 sequence (P54099 26-1218, chain 1 of 2)": "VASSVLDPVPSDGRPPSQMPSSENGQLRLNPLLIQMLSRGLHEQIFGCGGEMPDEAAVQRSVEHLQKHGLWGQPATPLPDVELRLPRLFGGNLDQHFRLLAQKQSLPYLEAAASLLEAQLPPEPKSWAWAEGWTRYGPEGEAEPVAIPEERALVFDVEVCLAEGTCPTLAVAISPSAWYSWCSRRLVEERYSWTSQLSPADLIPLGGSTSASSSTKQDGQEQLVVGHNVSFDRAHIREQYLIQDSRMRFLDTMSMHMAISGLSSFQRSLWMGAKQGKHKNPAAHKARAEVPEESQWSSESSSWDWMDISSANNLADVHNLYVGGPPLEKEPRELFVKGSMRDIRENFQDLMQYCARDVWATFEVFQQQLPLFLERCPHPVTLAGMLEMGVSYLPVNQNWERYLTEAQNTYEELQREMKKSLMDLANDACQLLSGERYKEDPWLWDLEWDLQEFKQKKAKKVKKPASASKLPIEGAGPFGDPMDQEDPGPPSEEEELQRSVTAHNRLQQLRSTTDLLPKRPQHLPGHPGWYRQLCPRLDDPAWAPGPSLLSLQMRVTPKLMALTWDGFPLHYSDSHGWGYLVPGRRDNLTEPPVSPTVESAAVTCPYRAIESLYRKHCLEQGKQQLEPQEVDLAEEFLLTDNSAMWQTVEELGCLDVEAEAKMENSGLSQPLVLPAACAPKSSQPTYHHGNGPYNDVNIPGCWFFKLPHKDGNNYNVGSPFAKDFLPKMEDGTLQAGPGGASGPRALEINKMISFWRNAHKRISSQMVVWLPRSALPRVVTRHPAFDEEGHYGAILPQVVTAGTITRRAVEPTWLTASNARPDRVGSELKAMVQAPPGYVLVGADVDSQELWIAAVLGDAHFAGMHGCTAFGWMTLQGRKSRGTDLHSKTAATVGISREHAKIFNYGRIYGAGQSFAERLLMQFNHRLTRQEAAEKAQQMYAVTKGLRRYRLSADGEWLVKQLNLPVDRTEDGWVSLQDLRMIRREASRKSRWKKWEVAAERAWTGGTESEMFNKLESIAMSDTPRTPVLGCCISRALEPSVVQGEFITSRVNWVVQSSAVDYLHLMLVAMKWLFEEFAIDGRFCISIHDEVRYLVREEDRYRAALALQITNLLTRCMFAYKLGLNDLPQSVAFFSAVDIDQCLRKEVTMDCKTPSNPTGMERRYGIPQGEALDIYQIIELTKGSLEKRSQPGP", "T1 sequence (Q9QZM2 whole entry, chain 2 of 2)": "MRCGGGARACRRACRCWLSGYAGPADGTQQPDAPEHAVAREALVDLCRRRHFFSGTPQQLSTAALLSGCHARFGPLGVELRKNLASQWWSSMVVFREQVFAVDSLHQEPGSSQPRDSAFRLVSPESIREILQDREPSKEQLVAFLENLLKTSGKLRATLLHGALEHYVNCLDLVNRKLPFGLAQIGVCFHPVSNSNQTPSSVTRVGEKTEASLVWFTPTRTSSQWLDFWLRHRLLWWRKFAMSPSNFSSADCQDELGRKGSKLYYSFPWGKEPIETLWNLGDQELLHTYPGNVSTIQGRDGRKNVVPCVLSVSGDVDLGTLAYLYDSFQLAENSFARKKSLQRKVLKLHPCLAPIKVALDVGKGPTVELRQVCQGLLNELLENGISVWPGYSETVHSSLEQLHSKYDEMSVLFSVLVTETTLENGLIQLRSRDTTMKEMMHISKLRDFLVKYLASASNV", "experiment": "EMSA; 10 uM ddCTP; value in Supp Fig 13f not in material; marginally weaker than human; EMSA: 25 mM Tris-HCl pH 8.0, ~30 mM NaCl, 1 mM TCEP, 0.1 mg/ml BSA, 10% glycerol, 10 uM ddCTP, 0.5 nM DNA, 6.6 nM POLγB dimer, ice 10 min then room temperature", "settings": "protein: recombinant;recombinant; tags: 6xHis;6xHis; copies: 1;2; label: 32P 5' on 21-mer; 21 bp, 15 nt 5' overhang on strand 1"}, "[5]": {"target": "mouse PolγA (mPolγA WT);human POLγB (hPOLγB) (Mus musculus;Homo sapiens, UniProt P54099;Q9UHN1 26-1218;26-485, |)", "sequence (P54099 26-1218, chain 1 of 2)": "as the sequence (P54099 26-1218, chain 1 of 2) above", "sequence (Q9UHN1 26-485, chain 2 of 2)": "as the sequence (Q9UHN1 26-485, chain 2 of 2) above", "experiment": "cryo-EM; chimera mAhB, human-like E conformer; 10 mM Ca2+, 0.2 mM dCTP; EMSA: 25 mM Tris-HCl pH 8.0, ~30 mM NaCl, 1 mM TCEP, 0.1 mg/ml BSA, 10% glycerol, 10 uM ddCTP, 0.5 nM DNA, 6.6 nM POLγB dimer, ice 10 min then room temperature", "settings": "protein: recombinant;recombinant; tags: 6xHis;6xHis; copies: 1;2; 15 nt 5' overhang on strand 1; single mismatch at primer 3' end"}, "[6]": {"target": "T1, mouse PolγA (mPolγA WT);mouse PolγB …", "experiment": "cryo-EM; R (replication) conformer; 10 mM Ca2+, 0.2 mM dCTP; EMSA: 25 mM Tris-HCl pH 8.0, ~30 mM NaCl, 1 mM TCEP, 0.1 mg/ml BSA, 10% glycerol, 10 uM ddCTP, 0.5 nM DNA, 6.6 nM POLγB dimer, ice 10 min then room temperature", "settings": "protein: recombinant;recombinant; tags: 6xHis;6xHis; copies: 1;2; 15 nt 5' overhang on strand 1; single mismatch at primer 3' end"}}, "data": [{"molecule": "mouse DNA polymerase γ accessory subunit, wild type (mPolγB^WT)", "values": [{"measurement": "increase in Tm of PolγA in complex with PolγB", "setting": "[1]", "result": 9, "unit": "°C"}]}, {"molecule": "mouse DNA polymerase γ accessory subunit, wild type (mPolγB^WT) (natural protein)", "values": [{"measurement": "increase in Tm of PolγA in complex with PolγB", "setting": "[2]", "result": 9, "unit": "°C"}]}, {"molecule": "B1", "values": [{"measurement": "binding result", "setting": "[3]", "result": "binds"}, {"measurement": "binding result", "setting": "[4]", "result": "binds"}]}, {"molecule": "B2", "values": [{"measurement": "binding result", "setting": "[5]", "result": "binds"}, {"measurement": "binding result", "setting": "[6]", "result": "binds"}]}]}
